Assay results taken from patent US20140287029A1.

Target: HLA-A2 molecules on T2 cells (human)
Assay: T2 cell-binding assay, flow cytometry of HLA-A2 on T2 cells, peptide 25 µg/mL; negative control
Settings: remark: other sources report otherwise

## HLFGYSWYK [CAP-7 peptide]
  T2 Binding (mean fluorescence intensity): 88 MFI
